Publication PMC7755903 (Nature Communications, 2020)
Where a chain is given by its changes, count along the chain named. Names may count otherwise. “And” between values parts separate entries of the source, which are not always exact repeats. Equal values may be shown once. One block for each binder: values may come before it.

Assays:
Conditions in all cases: both partners purified
[1] = molecular target: T1, human βI-tryptase monomer (Homo sapiens, UniProt Q15661); assay: SPR; Biacore T200; anti-tryptase IgG variant captured on a CM5 chip with anti-human IgG (Fc) antibody; threefold dilutions of human βI-tryptase monomer injected at 30 µL/min, 25 °C, 3-min association, 10-min dissociation; 1:1 binding model; representative single sensorgram sets
T1 construct: mature wild-type human βI-tryptase, Uniprot Q15661, Ile31-Pro275 (Ile16-Pro246 chymotrypsinogen numbering); also called monomeric βI-tryptase; β1-tryptase; source: Trichoplusia ni cells (baculovirus), secreted, purified (Ni-NTA, S200 SEC)
T1 sequence (Q15661 31-275): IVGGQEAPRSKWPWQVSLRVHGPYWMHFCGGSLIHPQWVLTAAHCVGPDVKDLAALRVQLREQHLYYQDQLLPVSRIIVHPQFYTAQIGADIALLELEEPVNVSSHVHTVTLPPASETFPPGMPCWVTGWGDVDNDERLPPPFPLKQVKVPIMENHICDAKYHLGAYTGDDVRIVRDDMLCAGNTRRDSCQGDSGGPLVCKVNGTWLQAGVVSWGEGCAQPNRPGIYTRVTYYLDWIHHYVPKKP

[2] = molecular target: T2, human βI-tryptase monomer (Homo sapiens, UniProt Q15661); assay: SPR; Biacore T200; E104 IgG variants captured on immobilised mouse anti-human IgG (Fc) antibody on CM5 chips; threefold dilutions of human βI-tryptase monomer injected at 30 µL/min, 25 °C; 1:1 Langmuir model; n = 2
T2 construct: mature human βI-tryptase, Ile31-Pro275 of Uniprot Q15661 (Ile16-Pro246 in chymotrypsinogen numbering); The monomer used in SPR and HDX-MS; also called monomeric βI-tryptase; monomeric β-tryptase
T2 sequence (Q15661 31-275): as above

[3] = molecular target: T3, human βI-tryptase monomer (Homo sapiens, UniProt Q15661); assay: SPR; Biacore T200; antibody captured on a CM5 chip by immobilised mouse anti-human IgG (Fc); threefold dilutions of βI-tryptase monomer injected at 30 µL/min, 25 °C, 3-min association, 10-min dissociation; 1:1 Langmuir fit; n = 2
T3 construct: mature wild-type human βI-tryptase, Uniprot Q15661, Ile31-Pro275 (Ile16-Pro246 in chymotrypsinogen numbering); The SPR methods say only 'human βI-tryptase monomer'; The methods describe the monomeric form as the zymogen, which still carries the N-terminal His6 tag and enterokinase site before Ile16; also called monomeric βI-tryptase; β-tryptase; source: Trichoplusia ni cells (baculovirus, …)
T3 sequence (Q15661 31-275): as above

B3: humanized E104.v2 IgG1 (antibody, V domains shown)
VH: EVQLVESGPGLVKPSETLSLTCTVSRFSLIGYAITWIRQPPGKGLEWIGGISSAATTFYSSWAKSRVTISRDTSKNQVSLKLSSVTAADTAVYYCARDPRGYGAALDRLDLWGQGTLVTVSS
VL: DIQMTQSPSSLSASVGDRVTITCQSIKSVYNNRLGWYQQKPGKAPKLLIYETSILTSGVPSRFSGSGSGTDFTLTISSLQPEDFATYYCAGGFDRSGDTTFGQGTKVEIK
notes: humanized E104.v2 VH: as the VH of Sm2 (E104.v1, PDB 6VVU heavy chain) with V71R and F78V (Kabat numbering); human IgG1 heavy chain constant region, the CH1 domain up to the upper hinge; upper hinge of human IgG1, wild type; human IgG1 heavy chain constant region after the upper hinge (core and lower hinge, CH2, CH3); v1 and v2 differ only in the heavy chain; IgG1; also called IgG1.v2; copies: 2 …
Kd [3]: 0.6 nM

B4: humanized E104.v1 IgG1 (antibody, V domains shown)
VH: B3 VH with R71V, V78F
VL: B3 VL
notes: variable domain of the heavy chain as in m6 (PDB 6VVU, Fab heavy chain); human IgG1 heavy chain constant region; as the light chain of m6 (PDB 6VVU, Fab light chain); IgG1; also called IgG1.v1; source: 293 cells, transient transfection, purified (MabSelect SuRe, SEC); copies: 2 + 2
Kd [2]: 0.5 ± 0.02 nM

B6: E104.v2 IgG1 hinge variant G1.P5 (antibody, V domains shown)
VH: B3 VH
VL: B3 VL
notes: variable domain of the heavy chain as in m6 (PDB 6VVU, Fab heavy chain) with V71R and F78V (Kabat numbering); human IgG1 heavy chain constant region before the upper hinge (CH1); upper hinge of the variant; human IgG1 heavy chain constant region after the upper hinge (core hinge from C226, CH2, CH3); as the light chain of m6 (PDB 6VVU, Fab light chain); IgG1 with five prolines in the upper hinge; …
Kd [2]: 0.4 ± 0.1 nM

B8: E104.v2 IgG1 hinge variant G1 + GGS (antibody, V domains shown)
VH: B3 VH
VL: B3 VL
notes: variable domain of the heavy chain as in m6 (PDB 6VVU, Fab heavy chain) with V71R and F78V (Kabat numbering); human IgG1 heavy chain constant region before the upper hinge (CH1); upper hinge of the variant; human IgG1 heavy chain constant region after the upper hinge (core hinge from C226, CH2, CH3); as the light chain of m6 (PDB 6VVU, Fab light chain); IgG1 with an extended upper hinge; source: …
Kd [2]: 0.5 ± 0.05 nM

B10: E104.v2 IgG1 hinge variant G1 + GG (antibody, V domains shown)
VH: B3 VH
VL: B3 VL
notes: humanized E104.v2 VH: as the VH of Sm2 (E104.v1, PDB 6VVU heavy chain) with V71R and F78V (Kabat numbering); human IgG1 heavy chain constant region, the CH1 domain up to the upper hinge; human IgG1 heavy chain constant region after the upper hinge (core and lower hinge, CH2, CH3); IgG1 with extended upper hinge; copies: 2 + 2
Kd [3]: 0.448 nM and 0.422 nM

B11: E104.v2 IgG1 hinge variant G1 + G (antibody, V domains shown)
VH: B3 VH
VL: B3 VL
notes: as for B10
Kd [3]: 0.538 nM and 0.521 nM

B12: E104.v2 IgG2 (antibody, V domains shown)
VH: B3 VH
VL: B3 VL
notes: variable domain of the heavy chain as in m6 (PDB 6VVU, Fab heavy chain) with V71R and F78V (Kabat numbering); human IgG2 heavy chain constant region; upper hinge printed as ERKCCVE; as the light chain of m6 (PDB 6VVU, Fab light chain); IgG2 isotype version of E104.v2; source: 293 cells, transient transfection, purified (MabSelect SuRe, SEC); copies: 2 + 2
Kd [2]: 0.6 ± 0.1 nM

B13: humanized E104.v2 IgG4 (antibody, V domains shown)
VH: B3 VH
VL: B3 VL
notes: humanized E104.v2 VH: as the VH of Sm2 (E104.v1, PDB 6VVU heavy chain) with V71R and F78V (Kabat numbering); human IgG4 heavy chain constant region, the CH1 domain up to the upper hinge; upper hinge of human IgG4; human IgG4 heavy chain constant region after the upper hinge (core and lower hinge, CH2, CH3); IgG4 isotype version of E104.v2; copies: 2 + 2
Kd [3]: 0.745 nM and 0.689 nM

The remaining lines, values ahead:

Kd [1]: 0.56 nM
B1: E104.v2 IgG1 hinge variant G1-TH (antibody, V domains shown)
VH: B3 VH
VL: B3 VL

Kd [2]: 0.5 ± 0.1 nM
B2: E104.v2 IgG1 hinge variant G1 + (GGS)3 (antibody, V domains shown)
VH: B3 VH
VL: B3 VL
notes: as for B8

Kd [1]: 0.543 nM
B5: humanized E104.v1 IgG1 (antibody, V domains shown)
VH: B3 VH with R71V, V78F
VL: B3 VL

Kd [3]: 0.643 nM and 0.493 nM
B7: E104.v2 IgG1 hinge variant G1.G5 (antibody, V domains shown)
VH: B3 VH
VL: B3 VL
notes: humanized E104.v2 VH: as the VH of Sm2 (E104.v1, PDB 6VVU heavy chain) with V71R and F78V (Kabat numbering); human IgG1 heavy chain constant region, the CH1 domain up to the upper hinge; engineered upper hinge: DKTHT of the human IgG1 upper hinge replaced by five glycines; human IgG1 heavy chain constant region after the upper hinge (core and lower hinge, CH2, CH3); IgG1 with a flexible upper …

Kd [3]: 0.626 nM and 0.41 nM
B9: E104.v2 IgG1 hinge variant G1 + (GGS)3 (antibody, V domains shown)
VH: B3 VH
VL: B3 VL
notes: as for B10

Kd [1]: 0.643 nM
B14: E104.v2 IgG1 hinge variant G1.G5 (antibody, V domains shown)
VH: B3 VH
VL: B3 VL

Kd [3]: 0.522 nM and 0.401 nM
B15: E104.v2 IgG1 hinge variant G1-KTH (antibody, V domains shown)
VH: B3 VH
VL: B3 VL
notes: humanized E104.v2 VH: as the VH of Sm2 (E104.v1, PDB 6VVU heavy chain) with V71R and F78V (Kabat numbering); human IgG1 heavy chain constant region, the CH1 domain up to the upper hinge; human IgG1 heavy chain constant region after the upper hinge (core and lower hinge, CH2, CH3); IgG1 with shortened upper hinge; copies: 2 + 2

Kd [1]: 0.522 nM
B16: E104.v2 IgG1 hinge variant G1-KTH (antibody, V domains shown)
VH: B3 VH
VL: B3 VL
